Laboratory results: patent publication US20260250318A1, “COMPOSITIONS AND METHODS FOR CROSSING THE BLOOD BRAIN BARRIER” (VOYAGER THERAPEUTICS, INC., priority 2022, published 2026)
Where a chain is given by its changes, count along the chain named.

Columns and labels:
[1] = tested on: GPI anchored proteins (endogenous ALPL) on HeLa cells; experiment: Transduction of HeLa cells after PI/PLC removal of GPI anchored proteins; format: cell-based, human; details: 1E4 VG/cell
Method: Endogenous ALPL was also removed from the surface of HeLa cells by treatment with increasing concentrations phosphatidylinositol-specific phospholipase C (PI/PLC), which cleaves GPI anchored proteins (0, 1, 3, 6, or 10 U/mL), for 1.5 hours at 37° C. Following PI/PLC treatment, cells were incubated with 1E4 VG/cell for three hours of AAV particles comprising the TTM-002 capsid variant or AAV particles comprising an AAV9 control capsid, cells were then washed to remove free virus, and luciferase activity was measured 24 hours post-transduction (RLU).

[2] = tested on: brain; experiment: NGS fold enrichment of synthetic library (passage 3) in C57Bl/6 mice, first cross-species screen; format: in vivo; details: synthetic library passage 3, intravenous, RNA NGS, brain of C57Bl/6 mice, relative to wild-type AAV9
Summary of the method: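 Passage-3 synthetic capsid library given intravenously […] to NHPs (2-4 years) and BALB/c or C57Bl/6 mice (n=3, 6-8 weeks). After e.g. 28 days, tissue RNA was RT-PCR amplified and NGS-sequenced; values are fold enrichment of each variant relative to wild-type AAV9.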

[3] = target: T1, isoform 2 (alkaline phosphatase, placental (ALPP)) (Homo sapiens, UniProt P05187); experiment: Transduction assay in HEK 293T cells expressing isoform 2; format: cell-based; details: for Luciferase Activity (RLU): Table 30, Isoform 2 transfected cells; for increase in transduction in cells expressing isoform 2: luciferase activity (RLU)
T1 construct: expressed in transfected cells; host or cells: HEK 293T
T1 sequence (P05187 23-506): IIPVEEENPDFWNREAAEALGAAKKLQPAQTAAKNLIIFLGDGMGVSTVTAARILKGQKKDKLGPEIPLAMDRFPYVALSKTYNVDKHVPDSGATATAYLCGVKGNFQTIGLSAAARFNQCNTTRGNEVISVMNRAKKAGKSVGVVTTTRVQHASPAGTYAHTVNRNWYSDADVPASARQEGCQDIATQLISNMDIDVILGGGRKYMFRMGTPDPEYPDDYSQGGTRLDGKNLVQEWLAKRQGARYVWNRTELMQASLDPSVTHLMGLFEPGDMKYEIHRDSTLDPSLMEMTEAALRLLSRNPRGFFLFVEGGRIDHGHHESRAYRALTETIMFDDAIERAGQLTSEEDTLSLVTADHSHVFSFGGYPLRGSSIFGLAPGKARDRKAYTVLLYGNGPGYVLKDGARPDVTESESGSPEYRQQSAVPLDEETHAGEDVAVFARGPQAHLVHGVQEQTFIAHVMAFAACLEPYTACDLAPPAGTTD
Source text: (§1) Three isoforms of ALPL exist, isoform 1 (Alkaline phosphatase, placental-like 2 (ALPPL2), NM_031313, which is incorporated by reference herein), isoform 2 (alkaline phosphatase, placental (ALPP), NM_001632, which is incorporated by reference herein), and isoform 3 (alkaline phosphatase, intestinal (ALPLI), NM_001631, which is incorporated by reference herein), that can also be expressed on cell surfaces via a GPI-anchor. Isoform 1 is 56.25% identical and 72.54% similar (gaps: 4.17%) to ALPL, isoform 2 is 54.96% identical and 71.37% similar (gaps: 2.29%) to ALPL, and isoform 3 is 55.98% identical and 72.11% similar (gaps: 3.04%) to ALPL. The transduction assay described above was repeated with the three isoforms. HEK 293T cells were transfected via calcium phosphate transfection with a plasmid expressing ALPL, isoform 1 of ALPL, isoform 2 of ALPL, isoform 3 of ALPL, an AAVR positive control, or a pCMV6 negative control. […] At 24-hours post-transduction, luciferase activity (RLU) was measured to quantify AAV cellular transduction.

[4] = tested on: brain; experiment: Second cross-species screen, passage 2 in BALB/c mice after first passage in NHPs; format: in vivo
Method: A second cross-species evolution screen was performed using an AAV capsid variant library with a modification in loop IV introduced as described above and passaging it once through NHPs (passage 1) and then subsequently injected it into two different strains of mice (passage 2), C57Bl/6 and BALB/c. The fold-enrichment for each variant in the brain of each mouse species was calculated by systematic NGS enrichment analysis following RNA recovery and RT-PCR amplification. The fold enrichment values in the second passage in mice were compared to those fold enrichment values from the second pass that was performed in NHPs as described above. […] Further, 10 of these 12 variants comprised the SPH motif and a positive residue in one of the next three subsequent residues (Table 10).

[5] = target: T2, isoform 3 (alkaline phosphatase, intestinal (ALPLI)) (Homo sapiens, UniProt P09923); experiment: Transduction assay in HEK 293T cells expressing isoform 3; format: cell-based; details: for Luciferase Activity (RLU): Table 30, Isoform 3 transfected cells; for increase in transduction in cells expressing isoform 3: luciferase activity (RLU)
T2 construct: expressed in transfected cells; host or cells: HEK 293T
T2 sequence (P09923 20-503): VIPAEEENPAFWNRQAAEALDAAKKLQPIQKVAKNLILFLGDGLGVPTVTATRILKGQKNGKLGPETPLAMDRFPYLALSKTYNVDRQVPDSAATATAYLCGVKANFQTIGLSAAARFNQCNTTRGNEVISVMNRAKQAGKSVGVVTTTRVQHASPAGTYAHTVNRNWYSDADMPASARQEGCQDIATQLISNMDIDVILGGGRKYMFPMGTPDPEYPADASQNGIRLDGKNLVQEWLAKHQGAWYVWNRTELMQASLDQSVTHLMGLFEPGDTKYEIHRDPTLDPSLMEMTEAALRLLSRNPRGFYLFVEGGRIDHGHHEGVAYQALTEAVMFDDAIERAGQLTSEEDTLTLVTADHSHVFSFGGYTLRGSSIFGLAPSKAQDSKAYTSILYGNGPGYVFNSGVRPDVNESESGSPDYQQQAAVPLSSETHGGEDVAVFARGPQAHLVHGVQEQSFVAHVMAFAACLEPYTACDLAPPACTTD
Source text: as §1

[6] = tested on: brains and tissues (liver, DRG, quadriceps, and heart); experiment: NGS fold enrichment of capsid variants in African green monkeys; format: in vivo, African green monkeys (Chlorocebus sabaeus); details: 2E13 vg/kg IV, 14 days
Source text: To investigate tropism in African green monkeys, AAV particles comprising the TTM-001 capsid variant, the TTM-002 capsid variant, an AAV9 capsid variant comprising SEQ ID NO: 966, or an AAV9 control under the control of a synapsin promoter, were intravenously injected into NHPs (n=2, 3-12 years of age) at a dose of 2E13 vg/kg. After 14-days in life, the brains and tissues (liver, DRG, quadriceps, and heart) of the NHPs were collected and RNA was extracted. Following RNA recovery and RT-PCR amplification, a systematic NGS enrichment analysis was performed to calculate the fold enrichment ratio relative to the AAV9 wild-type control.

For “AAV9: wild-type AAV9 control capsid [reference compound]”, the “Transduction in HeLa as measured by luciferase assay (RLU) following treatment with PI/PLC” value (“Transduction in HeLa as measured” below) ([1]; PI/PLC 0 U/mL) was 239.3 RLU, the “Transduction in HeLa as measured” value ([1]; PI/PLC 1 U/mL) was 193.7 RLU and the “Transduction in HeLa as measured” value ([1]; PI/PLC 3 U/mL) was 222 RLU. The “Transduction in HeLa as measured” value ([1]; PI/PLC 6 U/mL) was 207.7 RLU and the “Transduction in HeLa as measured” value ([1]; PI/PLC 10 U/mL) was 212 RLU.

B1: TTM-001: AAV9 capsid variant comprising SPHSKA (SEQ ID NO: 941) in loop IV (protein)
chain 1: MAADGYLPDWLEDNLSEGIREWWALKPGAPQPKANQQHQDNARGLVLPGYKYLGPGNGLDKGEPVNAADAAALEHDKAYDQQLKAGDNPYLKYNHADAEFQERLKEDTSFGGNLGRAVFQAKKRLLEPLGLVEEAAKTAPGKKRPVEQSPQEPDSSAGIGKSGAQPAKKRLNFGQTGDTESVPDPQPIGEPPAAPSGVGSLTMASGGGAPVADNNEGADGVGSSSGNWHCDSQWLGDRVITTSTRTWALPTYNNHLYKQISNSTSGGSSNDNAYFGYSTPWGYFDFNRFHCHFSPRDWQRLINNNWGFRPKRLNFKLFNIQVKEVTDNNGVKTIANNLTSTVQVFTDSDYQLPYVLGSAHEGCLPPFPADVFMIPQYGYLTLNDGSQAVGRSSFYCLEYFPSQMLRTGNNFQFSYEFENVPFHSSYAHSQSLDRLMNPLIDQYLYYLSKTINGSGSPHSKAQNQQTLKFSVAGPSNMAVQGRNYIPGPSYRQQRVSTTVTQNNNSEFAWPGASSWALNGRNSLMNPGPAMASHKEGEDRFFPLSGSLIFGKQGTGRDNVDADKVMITNEEEIKTTNPVATESYGQVATNHQSAQAQAQTGWVQNQGILPGMVWQDRDVYLQGPIWAKIPHTDGNFHPSPLMGGFGMKHPPPQILIKNTPVPADPPTAFNKDKLNSFITQYSTGQVSVEIEWELQKENSKRWNPEIQYTSNYYKSNNVEFAVNTEGVYSEPRPIGTRYLTRNL
chain 2: GSGSPHSKAQNQQT
B1 was tested, and the “Fold enrichment over AAV9 in the brain of Mice (C57Bl/6)” value [2] was 25.293 fold, the “Luciferase Activity (RLU)” value [3] was 7,456 RLU and the “increase in transduction in cells expressing isoform 2” value [3] was “did not occur”. The “Fold enrichment over AAV9 in BALB/c P2” value [4] was 44.58 fold, the “Luciferase Activity (RLU)” value [5] was 3,300 RLU and the “increase in transduction in cells expressing isoform 3” value [5] was “did not occur”. For the same molecule, the “expression relative to AAV9 in the heart of African green monkeys” value [6] was “a significant increase in expression relative to AAV9” and the “fold increase in expression relative to AAV9 in the brain of African green monkeys” value [6] was 43.5 fold.

B2: TTM-002: AAV9 capsid variant comprising HDSPHK (SEQ ID NO: 2) in loop IV (protein)
chain 1: B1 chain 1 with S454H, G455D, S459K, K460S, A461G
chain 2: GHDSPHKSGQNQQT
In the case of B2, the “Fold enrichment over AAV9 in the brain of Mice (C57Bl/6)” value [2] is reported as 63.993 fold, the “Luciferase Activity (RLU)” value [3] is reported as 3,465 RLU and the “increase in transduction in cells expressing isoform 2” value [3] is reported as “did not occur”. For the same molecule, the “transduction after PI/PLC treatment” value ([1]; HeLa, luciferase 24 hours) was “significantly decreased transduction”, the “Transduction in HeLa as measured” value ([1]; PI/PLC 0 U/mL) was 1731 RLU and the “Transduction in HeLa as measured” value ([1]; PI/PLC 1 U/mL) was 474 RLU. The “Transduction in HeLa as measured” value ([1]; PI/PLC 3 U/mL) was 441 RLU, the “Transduction in HeLa as measured” value ([1]; PI/PLC 6 U/mL) was 396.7 RLU and the “Transduction in HeLa as measured” value ([1]; PI/PLC 10 U/mL) was 239.3 RLU. The “Fold enrichment over AAV9 in BALB/c P2” value [4] was 59.14 fold, the “Luciferase Activity (RLU)” value [5] was 2,074 RLU and the “increase in transduction in cells expressing isoform 3” value [5] was “did not occur”. For the same molecule, the “expression relative to AAV9 in the heart of African green monkeys” value [6] was “a significant increase in expression relative to AAV9” and the “fold increase in expression relative to AAV9 in the brain of African green monkeys” value [6] was 13.8 fold.
